From article PMC3229523, “Identification of Lactoferricin B Intracellular Targets Using an Escherichia coli Proteome Chip” (PLoS ONE, 2011)
Ends that are not written are not given here. * marks the point of attachment. Biotin = O=C1N[C@H]2[C@H](CS[C@H]2CCCCC(=O)*)N1

Key:
Assay in all cases: peptide or protein array; E. coli proteome chip: purified His-tagged proteins printed in duplicate on Fullmoon slides, blocked with 1% BSA; 10 nM N-terminal biotinylated LfcinB with 1% BSA, room temperature, 1 h; detected with DyLight 649-labeled streptavidin, ratio to DyLight 549-labeled anti-His antibody; ProCAT normalisation, local cut-off; triplicate chips
Details in all cases: both partners purified
GlpK = target: T1, GlpK (E. coli K-12, UniProt P0A6F3 1-502)
T1 construct: GlpK, E. coli K-12
T1 sequence (P0A6F3 whole entry): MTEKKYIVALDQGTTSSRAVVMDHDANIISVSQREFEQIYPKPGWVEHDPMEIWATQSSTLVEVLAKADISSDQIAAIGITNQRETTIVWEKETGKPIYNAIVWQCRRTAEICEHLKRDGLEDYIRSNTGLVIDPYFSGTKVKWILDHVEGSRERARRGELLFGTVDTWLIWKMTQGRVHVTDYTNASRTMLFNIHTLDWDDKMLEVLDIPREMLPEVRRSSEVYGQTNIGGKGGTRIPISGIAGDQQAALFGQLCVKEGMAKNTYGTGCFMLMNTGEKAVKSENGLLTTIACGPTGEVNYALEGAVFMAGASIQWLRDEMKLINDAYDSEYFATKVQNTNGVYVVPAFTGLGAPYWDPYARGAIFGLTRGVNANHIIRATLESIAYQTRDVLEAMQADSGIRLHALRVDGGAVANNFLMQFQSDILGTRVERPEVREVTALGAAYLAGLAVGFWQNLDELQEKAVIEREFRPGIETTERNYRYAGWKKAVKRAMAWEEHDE

YceC = target: T2, YceC (E. coli K-12, UniProt P0AA39 1-319)
T2 construct: YceC, E. coli K-12
T2 sequence (looked up): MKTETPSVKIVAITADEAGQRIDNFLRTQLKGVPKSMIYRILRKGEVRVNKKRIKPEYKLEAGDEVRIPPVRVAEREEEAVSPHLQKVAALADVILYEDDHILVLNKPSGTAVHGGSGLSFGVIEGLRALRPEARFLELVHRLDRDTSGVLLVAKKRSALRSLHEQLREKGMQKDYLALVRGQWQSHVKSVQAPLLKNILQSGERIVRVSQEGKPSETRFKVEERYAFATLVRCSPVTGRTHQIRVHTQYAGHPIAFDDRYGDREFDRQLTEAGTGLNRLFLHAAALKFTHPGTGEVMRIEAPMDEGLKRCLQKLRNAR

FlgC = target: T3, FlgC (E. coli K-12, UniProt P0ABX2 1-134)
T3 construct: FlgC, E. coli K-12
T3 sequence (looked up): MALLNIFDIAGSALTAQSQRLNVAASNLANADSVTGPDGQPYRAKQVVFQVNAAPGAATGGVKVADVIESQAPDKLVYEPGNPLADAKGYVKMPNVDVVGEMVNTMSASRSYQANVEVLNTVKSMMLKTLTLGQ

YnhE = target: T4, YnhE (E. coli K-12, UniProt P77522 1-495)
T4 construct: YnhE, E. coli K-12
T4 sequence (looked up): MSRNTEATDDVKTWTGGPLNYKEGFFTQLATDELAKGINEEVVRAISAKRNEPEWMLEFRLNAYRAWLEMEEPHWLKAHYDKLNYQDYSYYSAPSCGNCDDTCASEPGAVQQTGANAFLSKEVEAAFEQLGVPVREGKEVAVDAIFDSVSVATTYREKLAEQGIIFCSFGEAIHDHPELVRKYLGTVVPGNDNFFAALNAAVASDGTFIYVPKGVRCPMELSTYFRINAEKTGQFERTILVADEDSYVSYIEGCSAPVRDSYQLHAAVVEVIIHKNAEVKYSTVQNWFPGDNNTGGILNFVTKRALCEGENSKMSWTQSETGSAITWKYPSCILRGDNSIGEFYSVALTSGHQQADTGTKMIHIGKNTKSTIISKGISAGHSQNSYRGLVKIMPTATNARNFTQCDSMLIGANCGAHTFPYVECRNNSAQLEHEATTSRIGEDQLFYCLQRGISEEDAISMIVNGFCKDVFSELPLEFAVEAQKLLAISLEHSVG

FimZ = target: T5, FimZ (E. coli K-12, UniProt P0AEL8 1-210)
T5 construct: FimZ, E. coli K-12
T5 sequence (looked up): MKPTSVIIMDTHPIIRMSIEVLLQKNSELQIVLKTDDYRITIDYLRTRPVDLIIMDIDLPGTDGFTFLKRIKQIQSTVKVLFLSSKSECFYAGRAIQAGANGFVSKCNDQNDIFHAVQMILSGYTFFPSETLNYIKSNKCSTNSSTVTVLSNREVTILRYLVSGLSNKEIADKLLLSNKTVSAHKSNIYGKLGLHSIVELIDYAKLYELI

[1] = target: T6, ribonucleoside-diphosphate reductase 2, β subunit (E. coli K-12, UniProt P37146 1-319)
T6 construct: NrdF, ribonucleoside-diphosphate reductase 2, β subunit, E. coli K-12; no measurement of the oligomer here; also called NrdF
T6 sequence (P37146 whole entry): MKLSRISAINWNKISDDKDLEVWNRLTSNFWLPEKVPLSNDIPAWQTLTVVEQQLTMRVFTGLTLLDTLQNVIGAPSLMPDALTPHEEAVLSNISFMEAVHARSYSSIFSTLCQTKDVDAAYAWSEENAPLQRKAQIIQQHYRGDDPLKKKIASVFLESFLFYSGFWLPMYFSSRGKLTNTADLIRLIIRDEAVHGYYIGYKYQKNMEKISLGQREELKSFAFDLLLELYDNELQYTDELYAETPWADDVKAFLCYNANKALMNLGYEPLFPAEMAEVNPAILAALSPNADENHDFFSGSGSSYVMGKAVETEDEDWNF

YibN = target: T7, YibN (E. coli K-12, UniProt P0AG27 1-143)
T7 construct: YibN, E. coli K-12
T7 sequence (looked up): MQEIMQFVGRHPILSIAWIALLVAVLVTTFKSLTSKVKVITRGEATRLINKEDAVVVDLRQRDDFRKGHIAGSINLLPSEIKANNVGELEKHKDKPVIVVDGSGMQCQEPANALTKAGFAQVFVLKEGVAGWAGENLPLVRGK

Measured: binding result

B1: N-terminal biotinylated Lactoferricin B (peptide, UniProt P24627 36-60, looked up)
peptide: Biotin-FKCRRWQWRMKKLGAPSITCVRRAF
modifications: ends and bridges not checked
notes: lactoferricin B (LfcinB), cationic antimicrobial peptide of 25 amino acids; also called biotinylated LfcinB; biotin-labeled LfcinB; source: bought: Kelowna Inc
binds: all assays above
